Experimental data taken from US20210315238A1.
Where two headings read alike, the source gives them in different places.

Columns and labels:
26-mer peptide [1] = test system: 26-mer peptide
33-mer peptide [2] = test system: 33-mer peptide
[3] = target: wheat gliadin (Sigma, Cat. No. G3375) (wheat); test: cell-based or functional assay
26-mer peptide [4] = target: T1, 26-mer peptide
T1 chain: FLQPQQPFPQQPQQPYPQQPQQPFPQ

33-mer peptide [5] = target: T2, 33-mer peptide
T2 chain: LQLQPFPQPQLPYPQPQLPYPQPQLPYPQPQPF

For Brewers Clarex, the Residual 26-mer peptide (mg/mL) after 0.5 ppm protease, 10 min 40 C, HPLC (26-mer peptide [1]) was 0.65 mg/mL, the Residual 26-mer peptide (mg/mL) after 1 ppm protease, 10 min 40 C, HPLC (26-mer peptide [1]) was 0.46 mg/mL and the Residual 26-mer peptide (mg/mL) after 2 ppm protease, 10 min 40 C, HPLC (26-mer peptide [1]) was 0.2 mg/mL. It also gave a Residual immunogenicity of 26-mer peptide (%), competitive ELISA after protease treatment (26-mer peptide [1]) of 99.6%, a Residual 33-mer peptide (mg/mL) after 0.5 ppm protease, 10 min 40 C, HPLC (33-mer peptide [2]) of 0.58 mg/mL and a Residual 33-mer peptide (mg/mL) after 1 ppm protease, 10 min 40 C, HPLC (33-mer peptide [2]) of 0.39 mg/mL. It also gave a Residual 33-mer peptide (mg/mL) after 2 ppm protease, 10 min 40 C, HPLC (33-mer peptide [2]) of 0.18 mg/mL and a Residual immunogenicity of 33-mer peptide (%), competitive ELISA after protease treatment (33-mer peptide [2]) of 73.7%.

In the case of Brewers Clarex (enzyme), the Residual Immunogenicity (%) of wheat gliadin, competitive ELISA after protease treatment [3] is reported as 59.7%.

B1: AflPro3 (protein)
chain: LSFLPGIKANNLQLASVLGIDGHTARFNPEKIAETAISRGSGSEVPARRISIPIDHEDPSMGTYQNRYWVSADFYKPGGPVFVLDAGEGNAYSVAQSYLGGSDNFFAEYLKEFNGLGLVWEHRYYGDSLPFPVNTSTPNEHFKYLTNSQALADLPYFAEKFTLNGTDLSPKSSPWIMLGGSYPGMRAAFTRNEYPDTIFASFAMSAPVEAWVNMTIYFEQVYRGMVANGLGGCAKDLKAINDYIDSQLDKKGQAADAIKTLFLGKEGIHNSNGDFTAALGSIYNLFQSYGVDGGEESLSQLCSYLDKEASPNGIARKIGVKELTEKFAAWPPLLYLINQWGSQVGNGDSNCKGQNNSTETVCELGGQFTDPDTISWTWQYCTEWGYLQADNVGPHSLLSKYQSLEYQQSLCYRQFPGAKESGLLPEHPEANETNAETGGWTIRPSNVFWSAGEFDPWRTLTPLSNETFAPKGVQISTNIPKCGVETPENVLFGYVIPRAEHCFDYDLSYKPADKSRKLFSLALKKWLPCWRSEHAPKGVQRKWM
Work on B1 yielded a Residual 26-mer peptide (mg/mL) after 0.5 ppm protease, 10 min 40 C, HPLC (26-mer peptide [4]) of 0.38 mg/mL, a Residual 26-mer peptide (mg/mL) after 1 ppm protease, 10 min 40 C, HPLC (26-mer peptide [4]) of 0.17 mg/mL and a Residual 26-mer peptide (mg/mL) after 2 ppm protease, 10 min 40 C, HPLC (26-mer peptide [4]) of 0.05 mg/mL. The Residual 33-mer peptide (mg/mL) after 0.5 ppm protease, 10 min 40 C, HPLC (33-mer peptide [5]) was 0.09 mg/mL, the Residual 33-mer peptide (mg/mL) after 1 ppm protease, 10 min 40 C, HPLC (33-mer peptide [5]) was 0.01 mg/mL and the Residual 33-mer peptide (mg/mL) after 2 ppm protease, 10 min 40 C, HPLC (33-mer peptide [5]) was 0.01 mg/mL.
